In publication PMC11586170, “Amino-functionalized vertically ordered mesoporous silica film on electrochemically polarized screen-printed carbon electrodes for the construction of gated electrochemical aptasensors and sensitive d”:

Target: carcinoembryonic antigen (CEA) (UniProt P06731 35-685)
Test: electrochemical aptasensor (DPV, Fe(CN)6 3-/4- probe); aptamer immobilized on BSA-blocked NH2-VMSF/p-SPCE; linear range 100 fg/mL-100 ng/mL, LOD 24 fg/mL (not an affinity); aptamer immobilized in 0.01 M PBS pH 7.4 (4 C, 90 min), BSA block 0.1 wt%; CEA incubation 60 min; CEA binding buffer and temperature not in the material
Details: protein: commercial

Sequence of carcinoembryonic antigen (CEA) (P06731 35-685): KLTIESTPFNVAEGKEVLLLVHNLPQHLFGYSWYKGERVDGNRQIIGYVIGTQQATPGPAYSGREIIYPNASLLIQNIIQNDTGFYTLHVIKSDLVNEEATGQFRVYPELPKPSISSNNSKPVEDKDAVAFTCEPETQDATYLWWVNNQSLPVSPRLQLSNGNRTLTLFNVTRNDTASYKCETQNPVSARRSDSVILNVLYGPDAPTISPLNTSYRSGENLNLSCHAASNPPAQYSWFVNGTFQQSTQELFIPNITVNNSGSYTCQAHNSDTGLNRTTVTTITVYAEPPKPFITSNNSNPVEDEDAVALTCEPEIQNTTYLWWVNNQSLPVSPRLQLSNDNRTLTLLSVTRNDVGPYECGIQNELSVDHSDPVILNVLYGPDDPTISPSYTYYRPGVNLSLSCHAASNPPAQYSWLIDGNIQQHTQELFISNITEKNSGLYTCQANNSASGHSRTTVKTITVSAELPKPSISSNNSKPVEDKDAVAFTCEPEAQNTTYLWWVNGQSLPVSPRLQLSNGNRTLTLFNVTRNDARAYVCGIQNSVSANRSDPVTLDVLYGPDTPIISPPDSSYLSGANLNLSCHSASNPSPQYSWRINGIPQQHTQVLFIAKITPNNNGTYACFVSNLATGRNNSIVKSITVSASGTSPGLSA

Q: Does ATACAGCTTCAATT (ssDNA, 3'-NH2) [amino-modified CEA aptamer (Apt)] bind?
A: binds
